± gives the standard error. For some of these results: This sample holds only a part of the variants without activity.
B1: glmS ribozyme (parent)
chain: AUAAAAGCGCCAGAACUACAGAAAUGUAGUUGACGAGGAGGAGGUUUAUCGAAUUUUCGGCGGAUGCCUCCAAA

Assays:
Settings in all cases: with glucosamine-6-phosphate
[1] = variants of: B1; assay: kcat; higher = faster cleavage; RNA array
Summary of the method: (§1)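 kobs was derived by fitting per-tile medians to one- or two-exponential decays after normalising signals to baseline and to non-cleaving reference variants. Those signals came from barcoded ribozyme variants transcribed in situ by E. coli RNA polymerase on sequenced MiSeq chips, followed through a hybridised Cy3 probe at 37 °C and imaged over ~14 h. Glucosamine-6-phosphate (40 μM to 10 mM) in HEPES/KCl/Mg(OAc)2 buffer was flowed in. Weighted Michaelis–Menten fits across concentrations then gave kcat and KM.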

[2] = variants of: B1; assay: self-cleavage kobs at 640 uM GlcN6P; higher = faster cleavage; RNA array
Summary of the method: as §1

[3] = variants of: B1; assay: KM; higher = weaker cofactor use; RNA array
Summary of the method: as §1

[4] = variants of: B1; assay: self-cleavage kobs at 40 uM GlcN6P; higher = faster cleavage; RNA array
Summary of the method: as §1

[5] = variants of: B1; assay: self-cleavage kobs at 160 uM GlcN6P; higher = faster cleavage; RNA array
Summary of the method: as §1

[6] = variants of: B1; assay: self-cleavage kobs at 2500 uM GlcN6P; higher = faster cleavage; RNA array
Summary of the method: as §1

[7] = variants of: B1; assay: self-cleavage kobs at 10000 uM GlcN6P; higher = faster cleavage; RNA array
Summary of the method: as §1

Row | Variant | kcat [1] [s⁻¹] | self-cleavage kobs at 640 uM GlcN6P [2] [s⁻¹] | KM [3] [µM] | self-cleavage kobs at 40 uM GlcN6P [4] [s⁻¹] | self-cleavage kobs at 160 uM GlcN6P [5] [s⁻¹] | self-cleavage kobs at 2500 uM GlcN6P [6] [s⁻¹] | self-cleavage kobs at 10000 uM GlcN6P [7] [s⁻¹]
1 | G38A G62U | < 1e-05 | < 1e-05 |  |  |  |  | 
2 | G41A C71A | 0.000272 ± 3.8e-05 | 0.000125 ± 1.7e-05 | 645 ± 210 | 2.7e-05 ± 8.9e-06 | 5.23e-05 ± 1.1e-05 | 0.000308 ± 5.6e-05 | 0.000248 ± 2.8e-05
3 | G41A C71U | 0.000308 ± 7.8e-05 | 0.000132 ± 1.5e-05 | 697 ± 340 | 3e-05 ± 6.9e-06 | 5.5e-05 ± 7.2e-06 | 0.000414 ± 5e-05 | 0.00026 ± 3e-05
4 | A39U U57G | 2.55e-05 ± 5.3e-06 |  |  |  |  | 3.12e-05 ± 1.3e-05 | 2.2e-05 ± 9.3e-06
5 | A39U G40A C67A | 0.000278 ± 2.3e-05 | 0.000124 ± 3.1e-05 | 760 ± 190 |  |  | 0.000245 ± 6.5e-05 | 0.000247 ± 5e-05
6 | G38C C68A | 1.39e-05 ± 4.4e-06 |  |  | < 1e-05 |  |  | 
7 | G40U G66C | 0.000542 ± 7.3e-05 |  | 2060 ± 890 |  |  |  | 0.00046 ± 6.4e-05
8 | G38U G66U | < 1e-05 | < 1e-05 |  |  | < 1e-05 |  | 
9 | G38A U55G | < 1e-05 |  |  |  | < 1e-05 |  | 
10 | G38U G51A | < 1e-05 |  |  |  |  | < 1e-05 | 
11 | G40A U55G | 0.00116 ± 0.00032 | 0.000944 ± 0.00014 | 369 ± 170 | 0.000131 ± 1.8e-05 | 0.000246 ± 5.5e-05 |  | 0.00106 ± 0.00018
12 | A39U G51A | < 1e-05 |  |  | < 1e-05 | < 1e-05 |  | < 1e-05
13 | A39G A48U | 0.00118 ± 0.00016 | 0.000139 ± 3.1e-05 | 5000 ± 1200 |  |  | 0.000436 ± 8.7e-05 | 0.000774 ± 0.00011
14 | A39G A48C | 0.000798 ± 0.00012 | 0.000196 ± 3.4e-05 | 2140 ± 600 |  |  | 0.000468 ± 9e-05 | 0.00063 ± 0.0001
15 | A39U G66C C67A | 0.000462 ± 8.7e-05 | 0.00015 ± 3.2e-05 | 1570 ± 490 |  | 4.03e-05 ± 1.3e-05 | 0.000248 ± 6.1e-05 | 0.000455 ± 0.00013
16 | A39G G66A | 0.0379 ± 0.019 | 0.00601 ± 0.001 |  | 0.000706 ± 0.00011 | 0.00437 ± 0.0011 | 0.0223 ± 0.0067 | 0.0342 ± 0.0078
17 | A39C C70U | 0.000652 ± 0.00018 | 0.00019 ± 2.5e-05 | 1210 ± 530 | 4.36e-05 ± 6.9e-06 | 7.31e-05 ± 9.7e-06 | 0.000461 ± 8.2e-05 | 0.000616 ± 7.3e-05

Row | Variant | kcat [1] [s⁻¹] | self-cleavage kobs at 640 uM GlcN6P [2] [s⁻¹] | KM [3] [µM] | self-cleavage kobs at 40 uM GlcN6P [4] [s⁻¹] | self-cleavage kobs at 160 uM GlcN6P [5] [s⁻¹] | self-cleavage kobs at 2500 uM GlcN6P [6] [s⁻¹] | self-cleavage kobs at 10000 uM GlcN6P [7] [s⁻¹]
18 | A39G C58G C71A | 2.19e-05 ± 5.6e-06 |  |  |  |  |  | 
19 | G38U U47G | < 1e-05 |  |  | < 1e-05 |  |  | 
20 | A39C U55C | 0.00774 ± 0.0022 | 0.00144 ± 0.00027 | 3010 ± 1100 | 0.000127 ± 1.4e-05 | 0.000325 ± 5e-05 | 0.00268 ± 0.00051 | 0.0067 ± 0.00081
21 | G40U U55C | 0.000228 ± 3.6e-06 |  | 6810 ± 240 |  |  |  | 0.000135 ± 1.7e-05
22 | G40A U49G | 0.000121 ± 1.7e-06 | 4.19e-05 ± 1e-05 | 1210 ± 55 |  |  |  | 0.000108 ± 1.3e-05
23 | G38A C70A | < 1e-05 |  |  | < 1e-05 |  |  | 
24 | A39U U49G | 0.00055 ± 0.00012 | 0.000168 ± 5.1e-05 |  |  |  | 0.000231 ± 6.6e-05 | 0.000461 ± 7.3e-05
25 | A39C A64G | 0.00631 ± 0.0019 | 0.0014 ± 0.00018 | 1870 ± 760 | 0.000169 ± 1.3e-05 | 0.000342 ± 6.2e-05 | 0.00323 ± 0.00045 | 0.00604 ± 0.00065
26 | G40C A53C | 0.000789 ± 2e-05 | 0.000176 ± 2.5e-05 | 2240 ± 110 |  | 5.46e-05 ± 1.9e-05 | 0.0004 ± 6.6e-05 | 0.000652 ± 7.2e-05
27 | G40A G66A | 0.00833 ± 0.0037 | 0.00165 ± 0.00041 |  | 0.000144 ± 2e-05 | 0.000201 ± 8.8e-05 |  | 0.00641 ± 0.00098
28 | A39U C71G | 0.00162 ± 0.00048 | 0.00022 ± 2.8e-05 | 3300 ± 1600 | 4.48e-05 ± 8.3e-06 | 0.000107 ± 2e-05 | 0.00066 ± 9.6e-05 | 0.00126 ± 0.00011
29 | G40A G41C | 0.000139 ± 2e-05 | 4.87e-05 ± 1.8e-05 |  |  |  | 0.000179 ± 4.9e-05 | 0.000123 ± 1.4e-05
30 | G40A C71U | 0.0789 ± 0.028 | 0.0113 ± 0.0013 | 3660 ± 1500 | 0.000981 ± 7.3e-05 | 0.00194 ± 0.00048 | 0.0322 ± 0.009 | 0.0591 ± 0.0079
31 | A39C U57C | 1.89e-05 ± 2.4e-06 |  |  |  |  | 1.97e-05 ± 9.4e-06 | 
32 | G38A U54G | < 1e-05 |  |  | < 1e-05 |  |  | 
33 | A39C G40U | 0.000135 ± 1.1e-05 | 5.01e-05 ± 1.7e-05 | 1690 ± 480 |  |  | 7.56e-05 ± 9.8e-06 | 0.000118 ± 1e-05
34 | A39C G40C | 0.000145 ± 1.6e-06 | 4.2e-05 ± 9e-06 | 1590 ± 47 |  |  | 8.75e-05 ± 1.8e-05 | 0.000126 ± 1.5e-05
